These are literature values, as cited in publication PMC2812830.

This data set has as its target LAT pY191 phosphopeptide pY191 peptide (Homo sapiens) (UniProt O43561). The experiment in a line: ITC.

Turning to Grb2 (from UniProt P62993), the Kd is 286 nM.

As usually defined, the Kd is the concentration at which binding is half-saturated.
